Measurements: paper PMC2701625 (Biochemistry, 2009)

Target: the molecule itself
Assay: cross-linking

B1: GST-hHsp90-N520 (GST tagged human hsp90β truncation, residues 520-724) (domain or fragment)
chain: not shown
Q: For B1, which “stoichiometry N” value is on record?
A: The value was 4.
